Legend:
Experiment in all cases: ELISA
[1] = molecular target: Angola strain MARV GP ectodomain lacking residues 257-425 of the mucin-like domain (Marburg virus, Angola strain, UniProt Q1PD50 19-648)
[2] = molecular target: EBOV Mayinga strain GP ectodomain lacking residues 314-462 of the mucin-like domain (Ebola virus, Mayinga strain, UniProt Q05320 33-650)
[3] = molecular target: T1, Ravn strain cleaved MARV GP ectodomain (Marburg virus, Ravn strain, UniProt Q1PDC7 19-648)
T1 chain: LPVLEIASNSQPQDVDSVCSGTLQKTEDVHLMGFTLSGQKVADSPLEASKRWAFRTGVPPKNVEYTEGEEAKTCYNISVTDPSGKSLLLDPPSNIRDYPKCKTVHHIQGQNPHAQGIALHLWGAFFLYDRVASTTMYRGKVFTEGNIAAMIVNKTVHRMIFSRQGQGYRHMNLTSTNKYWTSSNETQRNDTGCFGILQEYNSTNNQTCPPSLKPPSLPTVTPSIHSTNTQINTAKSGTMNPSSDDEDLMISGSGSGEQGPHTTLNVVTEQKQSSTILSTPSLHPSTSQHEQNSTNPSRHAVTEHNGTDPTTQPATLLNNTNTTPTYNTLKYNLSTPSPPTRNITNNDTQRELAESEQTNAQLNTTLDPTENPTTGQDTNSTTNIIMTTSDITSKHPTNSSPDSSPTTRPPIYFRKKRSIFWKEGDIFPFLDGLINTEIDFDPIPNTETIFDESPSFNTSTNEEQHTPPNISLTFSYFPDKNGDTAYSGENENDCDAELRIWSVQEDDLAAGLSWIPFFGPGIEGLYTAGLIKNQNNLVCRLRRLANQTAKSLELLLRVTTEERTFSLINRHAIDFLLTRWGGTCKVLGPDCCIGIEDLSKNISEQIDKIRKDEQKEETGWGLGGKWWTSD

[4] = molecular target: T2, EBOV Mayinga strain GP ectodomain containing the glycan cap and mucin-like domain (Ebola virus, Mayinga strain, UniProt Q05320 33-650)
T2 chain: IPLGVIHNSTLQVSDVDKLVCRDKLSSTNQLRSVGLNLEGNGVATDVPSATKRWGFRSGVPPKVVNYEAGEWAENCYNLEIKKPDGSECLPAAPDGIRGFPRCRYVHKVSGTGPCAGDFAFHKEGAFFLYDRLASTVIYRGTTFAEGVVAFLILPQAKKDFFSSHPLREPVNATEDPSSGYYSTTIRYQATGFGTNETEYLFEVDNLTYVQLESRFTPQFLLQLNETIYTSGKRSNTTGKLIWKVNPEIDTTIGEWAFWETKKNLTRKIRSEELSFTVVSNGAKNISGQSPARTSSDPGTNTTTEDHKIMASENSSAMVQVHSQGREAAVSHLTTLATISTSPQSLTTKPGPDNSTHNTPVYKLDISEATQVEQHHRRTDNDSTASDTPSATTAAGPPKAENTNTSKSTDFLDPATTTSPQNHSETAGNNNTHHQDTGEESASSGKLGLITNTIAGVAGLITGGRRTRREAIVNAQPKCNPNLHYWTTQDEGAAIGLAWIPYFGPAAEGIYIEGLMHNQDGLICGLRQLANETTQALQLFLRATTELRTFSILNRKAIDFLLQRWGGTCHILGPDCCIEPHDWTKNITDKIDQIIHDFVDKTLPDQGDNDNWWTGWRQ

[5] = molecular target: T3, Angola strain MARV GP ectodomain containing the mucin-like domain (Marburg virus, Angola strain, UniProt Q1PD50 19-648)
T3 chain: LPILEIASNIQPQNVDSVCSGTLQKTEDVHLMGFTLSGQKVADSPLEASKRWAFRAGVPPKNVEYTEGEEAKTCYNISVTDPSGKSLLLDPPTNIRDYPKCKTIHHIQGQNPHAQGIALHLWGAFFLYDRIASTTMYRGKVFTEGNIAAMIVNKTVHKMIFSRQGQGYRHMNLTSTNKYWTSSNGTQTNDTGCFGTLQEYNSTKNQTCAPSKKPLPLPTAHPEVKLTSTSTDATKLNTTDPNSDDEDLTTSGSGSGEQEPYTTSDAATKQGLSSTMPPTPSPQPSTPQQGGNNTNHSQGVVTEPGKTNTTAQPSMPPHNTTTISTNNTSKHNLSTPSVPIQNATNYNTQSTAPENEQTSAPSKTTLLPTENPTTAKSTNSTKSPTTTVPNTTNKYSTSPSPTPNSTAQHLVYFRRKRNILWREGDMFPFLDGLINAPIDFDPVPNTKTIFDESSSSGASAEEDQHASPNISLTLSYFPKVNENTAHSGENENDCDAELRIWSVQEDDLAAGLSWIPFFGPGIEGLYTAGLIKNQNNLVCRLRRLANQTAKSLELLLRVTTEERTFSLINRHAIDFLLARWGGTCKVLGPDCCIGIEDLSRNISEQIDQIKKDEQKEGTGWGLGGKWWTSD

[6] = molecular target: T4, EBOV Mayinga strain cleaved GP ectodomain (Ebola virus, Mayinga strain, UniProt Q05320 33-650)
T4 chain: T2 chain

B1: MR201 (antibody, V domains shown)
VH: QLQLQESGPGLVKPSETLFLSCAVSGGSIAGSTHYWGWIRQPPGKGLEWIGSISESGSTYHNPSLKSRVTISVDTSKNYFSLNLSSVTAADTAVYYCARIVGQSGTFIYYYYAMDVWGTGTLVTVSS
VL: DIQLTQSPSFLSASVGDRVTITCRASQGISSYLAWYQQKPGKAPKLLIYAASTLQRGVPSRFSGSGSGTEFTLTISSLQPEDSATYYCQQLNSYLALIFGGGT
- EC50 [1]: 1.9 µg/mL
- EC50 [2]: > 1000 µg/mL
- EC50 [3]: 0.5 µg/mL
- EC50 [4]: > 1000 µg/mL
- EC50 [5]: 1.5 µg/mL
- EC50 [6]: > 1000 µg/mL

B2: MR78 human monoclonal antibody (antibody, V domains shown)
VH: QLQLQESGPGLVKPSETLSLTCTVSGGSISSSSYYWGWIRQPPGKGLEWIGSVYYSGGASYNPSLKSRATISVDTSKNQFSLNLDSVSAADTAIYYCASIYGSGTFYYYFYMDVWGKGSTVTVSS
VL: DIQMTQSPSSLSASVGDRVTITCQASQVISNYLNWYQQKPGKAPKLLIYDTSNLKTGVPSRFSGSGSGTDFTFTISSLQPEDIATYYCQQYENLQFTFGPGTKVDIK
- EC50 [1]: 2.3 µg/mL
- EC50 [2]: > 1000 µg/mL
- EC50 [3]: 1.1 µg/mL
- EC50 [4]: > 1000 µg/mL
- EC50 [5]: 1.4 µg/mL
- EC50 [6]: 107 µg/mL

Source: US20210324051A1 (published 2021)
